Test results reported in patent US20240368668A1, “SUBSTRATES AND BIOMARKERS OF ADAMTS7” (The Broad Institute, Inc., priority 2021, published 2024).
Square brackets hold non-standard residues; d marks the D form. Ends that are not written are not given here. pGlu = O=C1CC[C@@H](C(=O)O)N1

target: T1, mouse ADAMTS7 (Mus musculus, UniProt Q68SA9); assay: TMT10 TAILS N-terminomics, SMC1 experiment (Ad-mADAMTS7 WT vs EQ vs Luc, technical replicates, trypsin digest); format: cell-based; conditions: TAILS neo-N-terminal peptide abundance; log fold change, Ad-mADAMTS7 WT over Luc
T1 construct: Full-length mouse Adamts7 1-1857 (Uniprot Q68SA9, WT or E373Q catalytic mutant); expressed in transfected cells; host or cells: Human Coronary Artery Smooth Muscle Cells (HCA-SMC, Lonza), adenovirus 50 MOI
T1 sequence (Q68SA9 221-1657): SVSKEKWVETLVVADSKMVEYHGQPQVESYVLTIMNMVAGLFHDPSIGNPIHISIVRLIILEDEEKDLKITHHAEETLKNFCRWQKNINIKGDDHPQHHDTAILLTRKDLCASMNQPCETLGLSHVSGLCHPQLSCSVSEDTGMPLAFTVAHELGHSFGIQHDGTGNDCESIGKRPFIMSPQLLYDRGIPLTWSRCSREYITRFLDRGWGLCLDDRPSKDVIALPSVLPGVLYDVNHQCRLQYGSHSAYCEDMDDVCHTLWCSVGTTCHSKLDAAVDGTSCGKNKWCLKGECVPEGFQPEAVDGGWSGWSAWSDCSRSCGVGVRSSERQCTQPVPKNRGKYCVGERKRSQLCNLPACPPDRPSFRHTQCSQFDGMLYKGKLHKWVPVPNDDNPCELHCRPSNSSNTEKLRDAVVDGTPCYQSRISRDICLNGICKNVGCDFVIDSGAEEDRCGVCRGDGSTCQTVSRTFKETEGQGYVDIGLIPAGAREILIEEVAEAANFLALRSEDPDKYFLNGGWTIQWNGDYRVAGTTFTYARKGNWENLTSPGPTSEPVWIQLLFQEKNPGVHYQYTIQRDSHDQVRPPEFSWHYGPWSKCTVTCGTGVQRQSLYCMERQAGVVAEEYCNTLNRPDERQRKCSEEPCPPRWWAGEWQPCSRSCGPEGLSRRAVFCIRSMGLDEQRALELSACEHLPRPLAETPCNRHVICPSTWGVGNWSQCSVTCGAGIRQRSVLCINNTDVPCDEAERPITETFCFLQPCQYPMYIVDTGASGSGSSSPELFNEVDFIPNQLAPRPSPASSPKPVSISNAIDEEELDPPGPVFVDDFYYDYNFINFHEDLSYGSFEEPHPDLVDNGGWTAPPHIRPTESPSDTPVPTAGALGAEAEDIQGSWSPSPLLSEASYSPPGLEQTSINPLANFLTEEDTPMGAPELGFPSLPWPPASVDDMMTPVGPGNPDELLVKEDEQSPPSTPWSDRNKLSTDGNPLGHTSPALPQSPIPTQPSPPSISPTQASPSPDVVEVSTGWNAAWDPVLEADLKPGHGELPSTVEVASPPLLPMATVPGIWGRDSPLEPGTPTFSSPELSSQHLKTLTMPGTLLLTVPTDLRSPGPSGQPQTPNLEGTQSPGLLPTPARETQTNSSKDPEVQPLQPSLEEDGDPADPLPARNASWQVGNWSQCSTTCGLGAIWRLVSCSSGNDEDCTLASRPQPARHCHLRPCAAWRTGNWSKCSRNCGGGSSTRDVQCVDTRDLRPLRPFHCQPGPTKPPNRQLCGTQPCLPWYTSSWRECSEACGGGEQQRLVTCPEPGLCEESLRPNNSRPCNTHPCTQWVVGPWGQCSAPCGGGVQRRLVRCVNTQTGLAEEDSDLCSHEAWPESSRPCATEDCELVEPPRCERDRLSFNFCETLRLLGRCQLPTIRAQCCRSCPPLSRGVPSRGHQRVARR
How it was run: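 Full-length mouse ADAMTS7 (WT or E373Q mutant, C-terminal 3xFLAG) or luciferase was transduced via adenovirus, 50 MOI, into HCA-SMC (SMC1, SMC2) or HUVEC. SMC1: pooled media, technical triplicates 400 ug; SMC2: process triplicates 300 ug; HUVEC: process triplicates 200 ug, bFGF2 10 ng/ml.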

Point of comparison: “ADAM9_69 (VIQAEGKEHIIHLER; listed as Homo sapiens)”, logFC.mWT.over.Lux 1.45. Against it:
- FN1_886 (NQESTPVVIQQETTGTPR; listed as Homo sapiens) — higher, 1.70
- HSPG2_3647 ([pGlu]GKVKAFAHLQVPER; listed as Homo sapiens) — lower, 0.96
- LTBP2_677 (SLGPGTCTLPLAQR; listed as Homo sapiens) — lower, 0.90
- FLNA_612 (SVEGPSQAKIECDDKGDGSCDVR; listed as Homo sapiens) — higher, 1.87
- LOX_123 (HWFQAGYSTSR; listed as Homo sapiens) — within 0.2 log units, 1.60
- FN1_45 (VSQSKPGCYDNGKHYQINQQWER; listed as Homo sapiens) — higher, 3.70
- FN1_1143 (LTPGVEYVYTIQVLR; listed as Homo sapiens) — lower, 0.85
- ECM1_134 (FGDQSHPEPESWNAAQHCQQDR; listed as Homo sapiens) — higher, 3.02
